Assay in all cases: purified protein
Assay type in all cases: biochemical, Escherichia coli

Substrate in data set [1]: NC(=O)C1=CN([C@@H]2O[C@H](COP(=O)(O)OP(=O)(O)OC[C@H]3O[C@@H](n4cnc5c(N)ncnc54)[C@H](O)[C@@H]3O)[C@@H](O)[C@H]2O)C=CC1
The following applies: apparent, forward reaction, 0.5 mM NADP+ held constant by glutathione reductase/oxidized glutathione, 50 mM HEPES pH 7.5, 0.1% DDM.

Substrate in data set [2]: NC(=O)C1=CN([C@@H]2O[C@H](COP(=O)(O)OP(=O)(O)OC[C@H]3O[C@@H](n4cnc5c(N)ncnc54)[C@H](OP(=O)(O)O)[C@@H]3O)[C@@H](O)[C@H]2O)C=CC1
The following applies: apparent, reverse reaction, 0.5 mM NAD+ held constant by lactate dehydrogenase/pyruvate, 50 mM HEPES pH 7.5, 0.1% DDM.

Substrate in data set [3]: NC(=O)c1ccc[n+]([C@@H]2O[C@H](COP(=O)(O)OP(=O)(O)OC[C@H]3O[C@@H](n4cnc5c(N)ncnc54)[C@H](O)[C@@H]3O)[C@@H](O)[C@H]2O)c1
To be noted: apparent, reverse reaction, 100 μM NADPH held constant by glucose-6-phosphate dehydrogenase/D-glucose-6-phosphate, 5 mM MgCl2, 50 mM HEPES pH 7.5, 0.1% DDM.

Substrate in data set [4]: NC(=O)c1ccc[n+]([C@@H]2O[C@H](COP(=O)(O)OP(=O)(O)OC[C@H]3O[C@@H](n4cnc5c(N)ncnc54)[C@H](OP(=O)(O)O)[C@@H]3O)[C@@H](O)[C@H]2O)c1
The following applies: apparent, forward reaction, NADH held constant by alcohol dehydrogenase/ethanol (50 μM in methods, 500 μM in results), 6 mM hydrazine, 50 mM HEPES pH 7.5, 0.1% DDM.

In general, Km refers to the substrate concentration at which the rate is half of its maximum.

B1: E. coli transhydrogenase (TH, EcTH) (Escherichia coli K-12) (protein)
chain 1: MRIGIPRERLTNETRVAATPKTVEQLLKLGFTVAVESGAGQLASFDDKAFVQAGAEIVEGNSVWQSEIILKVNAPLDDEIALLNPGTTLVSFIWPAQNPELMQKLAERNVTVMAMDSVPRISRAQSLDALSSMANIAGYRAIVEAAHEFGRFFTGQITAAGKVPPAKVMVIGAGVAGLAAIGAANSLGAIVRAFDTRPEVKEQVQSMGAEFLELDFKEEAGSGDGYAKVMSDAFIKAEMELFAAQAKEVDIIVTTALIPGKPAPKLITREMVDSMKAGSVIVDLAAQNGGNCEYTVPGEIFTTENGVKVIGYTDLPGRLPTQSSQLYGTNLVNLLKLLCKEKDGNITVDFDDVVIRGVTVIRAGEITWPAPPIQVSAQPQAAQKAAPEVKTEEKCTCSPWRKYALMALAIILFGWMASVAPKEFLGHFTVFALACVVGYYVVWNVSHALHTPLMSVTNAISGIIVVGALLQIGQGGWVSFLSFIAVLIASINIFGGFTVTQRMLKMFRKN
chain 2: MSGGLVTAAYIVAAILFIFSLAGLSKHETSRQGNNFGIAGMAIALIATIFGPDTGNVGWILLAMVIGGAIGIRLAKKVEMTEMPELVAILHSFVGLAAVLVGFNSYLHHDAGMAPILVNIHLTEVFLGIFIGAVTFTGSVVAFGKLCGKISSKPLMLPNRHKMNLAALVVSFLLLIVFVRTDSVGLQVLALLIMTAIALVFGWHLVASIGGADMPVVVSMLNSYSGWAAAAAGFMLSNDLLIVTGALVGSSGAILSYIMCKAMNRSFISVIAGGFGTDGSSTGDDQEVGEHREITAEETAELLKNSHSVIITPGYGMAVAQAQYPVAEITEKLRARGINVRFGIHPVAGRLPGHMNVLLAEAKVPYDIVLEMDEINDDFADTDTVLVIGANDTVNPAAQDDPKSPIAGMPVLEVWKAQNVIVFKRSMNTGYAGVQNPLFFKENTHMLFGDAKASVDAILKAL
In the case of B1, the Michaelis-Menten constant (Km) in data set [1] was 6.8 ± 1 µM; in data set [2], 4.1 ± 1.2 µM; in data set [3] it was 108 ± 12 µM; in data set [4], 37 ± 7 µM.

The record behind these values is article PMC8551311, “Energy transfer between the nicotinamide nucleotide transhydrogenase and ATP synthase of Escherichia coli” (Scientific Reports, 2021).
